# Laboratory results as given in US20200283508A1 (TEXAS A AND M UNIVERSITY SYSTEM, published 2020).
# T1: Coa-R0474-505 (recombinant protein) (Staphylococcus aureus strain Newman)
# T1 chain: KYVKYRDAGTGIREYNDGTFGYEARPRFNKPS
# T2: Efb-N30-105 (Staphylococcus aureus strain Newman, UniProt A6QG59 30-105)
# T2 sequence: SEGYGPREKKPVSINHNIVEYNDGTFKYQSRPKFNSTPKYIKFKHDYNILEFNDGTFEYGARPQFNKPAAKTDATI
# What was measured:
# [1] = biological target: T1, Coa-R0474-505 (recombinant protein)
# [2] = biological target: Efb-A30-67 (Staphylococcus aureus strain Newman, UniProt P08515 1-218 = GST; A6QG59 30-67); assay: apparent Kd from half-maximal binding in ELISA (GraphPad Prism)
# [3] = biological target: recombinant Efb-O (Efb 68-98) (Staphylococcus aureus strain Newman, UniProt P08515 1-218 = GST); assay: as above
# [4] = biological target: T2, Efb-N30-105; assay: as above
# [5] = biological target: T1, Coa-R0474-505 (recombinant protein); assay: as above
# [6] = biological target: Coa-F (Coa 311-505) (Staphylococcus aureus strain Newman, UniProt P08515 1-218 = GST); assay: as above
# [7] = biological target: T3, Coa-C (Coa 311-636) (Staphylococcus aureus strain Newman, UniProt P08515 1-218 = GST); assay: as above
# T3 construct: also called rCoa-C; Coa-C311-636
# [8] = biological target: Coa-R (Coa 506-636) (Staphylococcus aureus strain Newman); assay: ELISA, antigen coated 200 ng/well, scFv-Fc at 0.5 µg/ml
# [9] = biological target: T3, Coa-C (Coa 311-636)
Binder,EC50 (read off the curve) [1],Kd [2],Kd [3],Kd [4],Kd [5],Kd [6],Kd [7],binding result [8],EC50 (read off the curve) [9]
"FBE5-B9 (scFv, V domains shown) VH: EVQLVESRGGVVQPGRSLRLSCAASGFTFSSYGMHWVRQAPGRGLEWVAVISYDGSNKYYADSVKGRFTISRDNSKNTLYLQMNGLRSDDTAVYYCARGGDDYGDYFDYWGQGTLVTVSS VL: QSVLTQPPSVSAAPGQKVTISCSGSSSNIGNNYVSWYQQLPGTAPKLLIYDNNKRPSGIPDRFSGSKSGTSATLGITGLQTGDEADYYCGTWDSSLSAAVFGGGTKLTVL",~0.2 µg/mL,25.9 nM,8.27 nM,3.45 nM,2.19 nM,1.12 nM,1.74 nM,no binding (tested: 0.5 µg/ml),–
"FBE5-C8 (scFv, V domains shown) VH: QMQLVQSGGGVVQPGRSLRLSCAASGFIFSNYGMHWVRQAPGKGLEWVAVISYDGSNKYYADSVKGRFTISRDNSKNTLYLQMDSLRAEDTAVYYCAREGVGGDYGDLPTGPYYYYGMDVWGQGTTVTVSS VL: QSVLTQPPSVSAAPGQKVTISCSGSSSNIGNNSVSWYQQLPGTAPKLLIYDNNKRPSGIPDRFSGSKSGTSATLGITGLQTGDEADYYCETWDSSLSAVVFGGGTKLTVL",–,–,–,–,–,7 nM,13.5 nM,no binding (tested: 0.5 µg/ml),–
"FBE5-C1 (scFv, V domains shown) VH: EVQLVETRGGVVQPGRSLRLSCAASGFTFSSYGMHWVRQAPGKGLEWVAVISYDGSNKYYADSVKGRFTISRDNSKNTLYLQMNSLRAEDTAVYYCAREGTYYYDSSGYYEGGFDYWGQGTLVTVSS VL: QSVLTQPPSASGTPGQRVTISCSGSSSNIGSGPVNWYQQLPGTAPKLLIYSDTRRPSGIPDRLSGSKSGTSASLGISGLQSEDEADYYCAAWDDSLNGYAFGSGTKVTVL",–,40.9 nM,–,–,24.3 nM,4.59 nM,1.13 nM,no binding (tested: 0.5 µg/ml),–
"FBE5-A6 (scFv, V domains shown) VH: QVQLVQSGGGVVQPGRSLRLSCAASGFTFSSYGMHWVRQAPGKGLEWVAVISYDGSNKYYADSVKGRFTISRDNSKNTLYLQMNSLRAEDTAVYYCAKAGDDDYGHYFDYWGQGTLVTVSS VL: not shown",~0.2 µg/mL,8.54 nM,13 nM,3.54 nM,1.9 nM,1.15 nM,1.24 nM,no binding (tested: 0.5 µg/ml),–
"FBE5-F9 (scFv, V domains shown) VH: QMQLVQSGGGVVQPGRSLRLSCAASGFTFSSYGMHWVRQAPGKGLEWVAVISYDGSNKYYADSVKGRFTISRDNSKNTLYLQMNSLRAEDTAVYYCAKEGDGDYGGVLDYWGQGTLVTVSS VL: QSVLTQPPSVSAAPGQKVTISCSGSSSNIEKNYVSWYQQLPGTAPKLLIYDNNKRPSGIPDRFSGSKSGTSATLGITGLQTGDEADYYCGTWDSSLSAVVFGGGTKLTVL",–,21.5 nM,7.97 nM,6.01 nM,3.16 nM,1.63 nM,2.85 nM,no binding (tested: 0.5 µg/ml),–
"FBE5-A12 (scFv, V domains shown) VH: QVQLVESGGGVVQPGRSLRLSCAASGFTFSSYGMHWVRQAPGKGLEWVAVISYDGSNKYYADSVKGRFTISRDNSKNTLYLQMNSLRGEDTAVYYCAREGGWEPNGLDYWGQGTLVTVSS VL: QAVLTQPPSASGTPGQRVTISCSGSDFNVGTNYVNWYQQLPGSAPKLLIYRNNQRPSGVPDRFSGSKSGTSATLGITGLQTGDEADYYCGTWDSSLSAEVFGGGTKLTVL",–,–,–,–,2.44 nM,0.647 nM,0.555 nM,no binding (tested: 0.5 µg/ml),~0.06 µg/mL
